Assay results as given in the nanobody polyreactivity screen of Harvey et al. (2022).

Assay: yeast display, Sf9 membrane polyspecificity reagent, FACS + sequencing; frameworks hold sequencing errors
Outline: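 Nanobodies came from a synthetic yeast display library in Saccharomyces cerevisiae BJ5465, induced with galactose for 36–48 hours and stained for 1 hour at 4 °C with 10% biotinylated, detergent-solubilized Sf9 membrane reagent. Cells were enriched on streptavidin microbeads and then FACS-sorted, with low and high (top ~1%) gates set on anti-HA fluorescence for expression and streptavidin fluorescence for reagent binding. Each polyreactivity label reflects the gate a clone came from. Genes were amplified by colony PCR, sequenced by MiSeq 2 × 250 and filtered by CDR length.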

| Sequence | polyreactivity (PSR sort gate) |
| --- | --- |
| QVQLVESGGGLVQAGGSLRLSCAASGRIVARYAMGWYRQAPGKERELVAAISPVGSTYYADSVKGRFTISRDNAKNTVYLQMTSLNPEDTGVYYCNAYNTRRSAPYVWRTYDYWGQGTQVTVSS | high polyreactivity |
| QVQLVESGGGLVQAGGSLRLSCAASGRIVGRNAMGWYRQAPGKERELVAAISSGGGRTYYADSVKGRFTISRDNAKNTVYLQMNSLKPEDTAVYYCNAGWRGRFYYWGQGTQVTVSS | high polyreactivity |
| QVQLVESGGGLVQAGGSLRLSCAASGRIVGRYAMGWYRQAPGKERELVAAISWSGGSTYYADSVKGRFTISRDNAKNTVYLQKNSLKPEDTAGYYCAADYDSYFRLYNYWGQGTQVTVSS | high polyreactivity |
| QVQLVESGGGLVQAGGSLRLSCAASGRIVPGNVMGWYRQAPGKERELVAAISSSGGSTYYADSVKGRFTISRDNAKNTVYLQMNSLKPEDTAVYYCNVRSGGKRRYSGRVDYWGQGTQVTVSS | low polyreactivity |
| QVQLVESGGGLVQAGGSLRLSCAASGRIVRNAIGWYRQAPGKERELVAAISRSGGSTYYADSVKGRFTISRDNAKNTVYLQMNSLKPEDTAVYYCDKRSTSQSLQGEYWGQGTQVTVSS | high polyreactivity |
| QVQLVESGGGLVQAGGSLRLSCAASGRIVSVNAMGWYRQAPGKERVLVAAITSGGRTNYADSVKGRFTISRDNAKNTVYLQMNSLNPEDTAVYFCAAPYLKGGEDEYWGQGTQVTVSS | high polyreactivity |
| QVQLVESGGGLVQAGGSLRLSCAASGRIWVYAMGWYRQAPGKERELVATITYNSGRTYYADSVKGRFTISRDNAKNTVYLQMNSLKPEDTAVYYCNADFWYSYRRGYGYWGQGTQVTVSS | high polyreactivity |
| QVQLVESGGGLVQAGGSLRLSCAASGRIYDGYAMGWYRQAPGKERELVATISSGGSTYYADSVKGRFTISRDNAKNNVYLQMNSLKPEDTAVYYCAADSWVQFDYWGQGTQVTVSS | low polyreactivity |
| QVQLVESGGGLVQAGGSLRLSCAASGRIYDVYAMGWYRQAPRKERELVATITGSGGGTYYADSVKGRFTISRDNAKNTVYLQMNSLKPEDTAVYYCAADYYPTYAYYVSNVGYDYWGQGTQVNVSS | low polyreactivity |
| QVQLVESGGGLVQAGGSLRLSCAASGRIYEYMGWYRQAPGKERELVAAISWRGGRTYYADSVKGRFTISRDNAKNTVYLQMNSLKPEDTAVYYCAAKTTYRYGYWGQGTQVTVSS | high polyreactivity |
| QVQLVESGGGLVQAGGSLRLSCAASGRIYFYNALGWYRQAPGKERELVATITRSGGRTYYADSVKGRFTISRDNAKNTVYLQMNSLKPEDTAVYYCAAYPTNNLYPNLEYWGQGTQVTVSS | high polyreactivity |
| QVQLVESGGGLVQAGGSLRLSCAASGRIYIIYAMGWYRQAPRKEREMVAAITRSGGRTFYADSVKGRFTISRDNAKNTVYLQMNSLKPEDTAVYYCAAAFGRVTKYGYRNQYGYWGQGTQVTVSS | high polyreactivity |
| QVQLVESGGGLVQAGGSLRLSCAASGRIYLGNVMGWYRQAPGKERELVAAISWSAGSTYYSDSVKGRFTISRDNAKITVYLQMNSLKPEDTAVYYCAAVYLWWSYEFDYWGQGTQVTVSS | low polyreactivity |
| QVQLVESGGGLVQAGGSLRLSCAASGRIYLYAMGWYRQTPGKERELVAAISYSGGSTYYADSVKGRFTISRDYAKNTVYLQMNCLKPEDTAVYYWASEAGSYWGKGTQVTVSS | high polyreactivity |
| QVQLVESGGGLVQAGGSLRLSCAASGRIYSNYAIGWYRQAPGKERELVAAITSGGRTNYADSVKGRFTISRDNAKNTVYLQMNSLKRDDTAVYYCDAETTPYQPDGFDEYYYWGQGTQVTVSS | high polyreactivity |
| QVQLVESGGGLVQAGGSLRLSCAASGRIYTRNTMGWYRQAPGKERELVAAITSRGGSTYYADSVKGRFTISRDNAKNTVYLQMNSLKPEDTAVYYCAADKPRSYYYWGLGTQVTVSS | high polyreactivity |
| QVQLVESGGGLVQAGGSLRLSCAASGRIYVYYVLGWYRQAPGKERELVAAITYSGGSTYYADSVKGRFTISRDNAKNTVYLQMNSLKPEDTAVYYCNKVDAFGIVRLYYWGQGTQVTVSS | low polyreactivity |
| QVQLVESGGGLVQAGGSLRLSCAASGRIYYRYGMGWYRQAPGKERELVAAISRTGGSTYYADSVKGRFTISRDNAKNTVYLQMNSLIPEDTAVYYCNATSNYRYDYWGQGTQVTVSS | low polyreactivity |
| QVQLVESGGGLVQAGGSLRLSCAASGRMFGAYGMGWYRQAPGKERELVAAISNGGRTSYADSVKGRFTISRDNAKNTVYLQMNSLKPEDTAVYYCAAVQLAYTYYWYNDWGQGTQVTVSS | high polyreactivity |
| QVQLVESGGGLVQAGGSLRLSCAASGRNFAWYAMGWYRQAPGKERELVAAISWSSDTTYYADSVKGRFTISRDNAKNTVYLQMNSLKPEDTAVYYCAAVFQGYTRKYYYWGQGTQVTVSS | high polyreactivity |
| QVQLVESGGGLVQAGGSLRLSCAASGRNFDKYTMGWYRQAPGKERELVAAISKSGSGTFYADSVKGRFTISRDNAKNTVYLQMNRLKPEDTAVYYCARVYTVGTGRSWRLDYWGQGTQVTVSS | high polyreactivity |
| QVQLVESGGGLVQAGGSLRLSCAASGRNFGAYTMGWYRQAPGKESELVAAISSSGGRTYYADSVKGRYTISRDNAKNTVYLQMNSLKPEDTAVYYCAASYSGRKDRYPHYDYWGQGTQVTVSS | low polyreactivity |

| Sequence | polyreactivity (PSR sort gate) |
| --- | --- |
| QVQLVESGGGLVQAGGSLRLSCAASGRNFGDYAMGWYRQAPGKERELVAAISSSGGRTYYADSVKGRFTISRDNAKNTVYLQMNSLQPEDTAVYYCAAQSKYYQYYSWGQGTQVTVSS | high polyreactivity |
| QVQLVESGGGLVQAGGSLRLSCAASGRNFGLYAMGWYRQAPGTERELVAAISWGGGRTYYADSVKGRFTISRDNAKNTVYLQMNSLKPEDTAVYYCNAVYSPRYYVGGYDYWGQGTQVTVSS | high polyreactivity |
| QVQLVESGGGLVQAGGSLRLSCAASGRNFGRYAMGWYRQAPGKEMELVAAISGSGGTTYYADSVKGRFTISRDNAKNTVYLQMNSLKPEDTAVYYCAARYWVGKVWKYDYWGQGTQVTVSS | high polyreactivity |
| QVQLVESGGGLVQAGGSLRLSCAASGRNFGSYAMGWYRQAPGKERELVAGIRSVGSTNYADSVKGRFTISRDNAKNTVYLQMNSLKPEDTAVYYCAARLWHLSYAGQGGDYWGQGTQVTVSS | low polyreactivity |
| QVQLVESGGGLVQAGGSLRLSCAASGRNFGTNAMGWYRQAPGKERELVASIDLSADSTYYADSVKGRFTISRDNAKNTVYLQMNSLKPEDTAVYYCNKDGYPWPPNLDYWGQGTQVTVSS | low polyreactivity |
| QVQLVESGGGLVQAGGSLRLSCAASGRNFKYNAMGWYRQAPGKERELVAVITSGGSTYYADSVKGRFTISRDNAKNTVYLQMNSLKPEDTAVYYCAKKYYKVHKFDYWGQGTQVTVSS | low polyreactivity |
| QVQLVESGGGLVQAGGSLRLSCAASGRNFPLNGMGWYRQAPGKERELVAAISYRGGSTYYADSVKGRFTISRDNPKNTVYLQMNSLKPEDTAVYYCAADYVSRRYYYWGQGTQVTVSS | high polyreactivity |
| QVQLVESGGGLVQAGGSLRLSCAASGRNFRDYDMGWYRQAPGKERELGAAITYDGYSTYYADSVKGRFTISRDNAKNTVYLQMNSLKPEDTAVYYCNADDDVTYFTYYSGGLYYWGQGTQVTVSS | low polyreactivity |
| QVQLVESGGGLVQAGGSLRLSCAASGRNFRRYAMGWYRQAPGKERELVATISGSGTSTYYADSVKGRFTISRDNAKNTVYLQMNSLKPEDTAVYYCAAGNPYYRTSQYYHWGQGTQVTVSS | high polyreactivity |
| QVQLVESGGGLVQAGGSLRLSCAASGRNFRSYVMGWYRQAPGKERELVASIRNRGGTTYYADSVKGRFTISRDNAKNTVYLQMNSLKPEDTAVYYCNAAPARTVYAQSSYVLYDYWGQGTQVTVSS | low polyreactivity |
| QVQLVESGGGLVQAGGSLRLSCAASGRNFRTNAMGWYRQAPGKERELVAAITWRGGNTYYADSVKGRFTISRDNAKNTVYLQMNSLKPEDTAVYYCATAYRYYPSPYDYWGQGTQVSVSS | high polyreactivity |
| QVQLVESGGGLVQAGGSLRLSCAASGRNFSANAMGWYRQAPGKEREMVATISSGGRTNYADSVKGRFTISRDNAKNTVYVQMNSLKPEDTAVYYCAKRGPYNRWYGRYDYWGQGTQVTVSS | low polyreactivity |
| QVQLVESGGGLVQAGGSLRLSCAASGRNFSHNAMGWYRQAPGKERELVAAISSRAGRTYADSVKGRFTISRDNAKYTVYLQMNSLKQEDTGVYYCAVRSKGKDVGYWGQGTQVTVSS | high polyreactivity |
| QVQLVESGGGLVQAGGSLRLSCAASGRNFSRNAMGWYRQAPGKERELVAAISSGGRTKYADSVKGRFTISRDNAKNTVYLQMNSLKPEDTAVYYCAATDPRSWYGRGRYDYWGQGTQVTVSS | high polyreactivity |
| QVQLVESGGGLVQAGGSLRLSCAASGRNFSSYALGWYRQAPGKERELVAAIRYDAGSTYYADSVKGRFTISRDNAKNTVYLQMNSLKPEDTAVYYCAAGIYSSRHSPYGYWGQGTQVTVSS | high polyreactivity |
| QVQLVESGGGLVQAGGSLRLSCAASGRNFYTYTMGWYRQAPGKERELVAAISKSGTSTYYADSVKGRFTISRDNAKNTVYLQMTSLKPEDSAVYYCAARAYYARFLMGYWGQGTQVTVSS | high polyreactivity |
| QVQLVESGGGLVQAGGSLRLSCAASGRNFYYYAMGWSRQAPGKERELVAAISWSGGSTRYADSVKGRFTISRDNPKNTVYLQMNSLKPEDTAVYYCAAEPDYWVGWIRYDYWGQGTQVTVSS | low polyreactivity |
| QVQLVESGGGLVQAGGSLRLSCAASGRNFYYYTMGWYRQAPGKERALVASISQSGARTYYADSVKGRFTISRDNSKNTVYLQMNSLKPVYTAVYYCNAVGTGGYHYWGQGTQVTVSS | high polyreactivity |
| QVQLVESGGGLVQAGGSLRLSCAASGRNIHFNAMGWYRQAPGKERELVAGITFIGTSTYYADSVKGRFTISRDNAKNTVYLQMNSLKPDDTAVYYFAASAVALPYYAGDYDYWGQATQVTVSS | low polyreactivity |
| QVQLVESGGGLVQAGGSLRLSCAASGRNIYSNAMGWYRQAPGKERELVAAIRWRDGATYYADSVKGRFTISRDNAKNTVYLQMNSLKPEDTAVYYCAAVYWGEEYEYWGQGTQVTVSS | low polyreactivity |
| QVQLVESGGGLVQAGGSLRLSCAASGRNLIAYAMGWYRQAPGKEREFVAAIRADDGRTYYADSVKGRFTISRDNAKITVYLQMTSLKPEDTAVYYCAAEWYWLHSWFDYWGQGTQVTVSS | high polyreactivity |
